Assay results reported in patent US20240261333A1 (published 2024).

Experiments:
Experiment in all cases: co-IP, anti-FLAG, lysate of cells with N-FLAG B3GNT2; mass spectrometry
PUM1 = molecular target: T1, PUM1 (human, UniProt Q14671-3 2-1188, limits assumed)
T1 construct: also called NP_00108494.1 (+1)
T1 sequence (looked up): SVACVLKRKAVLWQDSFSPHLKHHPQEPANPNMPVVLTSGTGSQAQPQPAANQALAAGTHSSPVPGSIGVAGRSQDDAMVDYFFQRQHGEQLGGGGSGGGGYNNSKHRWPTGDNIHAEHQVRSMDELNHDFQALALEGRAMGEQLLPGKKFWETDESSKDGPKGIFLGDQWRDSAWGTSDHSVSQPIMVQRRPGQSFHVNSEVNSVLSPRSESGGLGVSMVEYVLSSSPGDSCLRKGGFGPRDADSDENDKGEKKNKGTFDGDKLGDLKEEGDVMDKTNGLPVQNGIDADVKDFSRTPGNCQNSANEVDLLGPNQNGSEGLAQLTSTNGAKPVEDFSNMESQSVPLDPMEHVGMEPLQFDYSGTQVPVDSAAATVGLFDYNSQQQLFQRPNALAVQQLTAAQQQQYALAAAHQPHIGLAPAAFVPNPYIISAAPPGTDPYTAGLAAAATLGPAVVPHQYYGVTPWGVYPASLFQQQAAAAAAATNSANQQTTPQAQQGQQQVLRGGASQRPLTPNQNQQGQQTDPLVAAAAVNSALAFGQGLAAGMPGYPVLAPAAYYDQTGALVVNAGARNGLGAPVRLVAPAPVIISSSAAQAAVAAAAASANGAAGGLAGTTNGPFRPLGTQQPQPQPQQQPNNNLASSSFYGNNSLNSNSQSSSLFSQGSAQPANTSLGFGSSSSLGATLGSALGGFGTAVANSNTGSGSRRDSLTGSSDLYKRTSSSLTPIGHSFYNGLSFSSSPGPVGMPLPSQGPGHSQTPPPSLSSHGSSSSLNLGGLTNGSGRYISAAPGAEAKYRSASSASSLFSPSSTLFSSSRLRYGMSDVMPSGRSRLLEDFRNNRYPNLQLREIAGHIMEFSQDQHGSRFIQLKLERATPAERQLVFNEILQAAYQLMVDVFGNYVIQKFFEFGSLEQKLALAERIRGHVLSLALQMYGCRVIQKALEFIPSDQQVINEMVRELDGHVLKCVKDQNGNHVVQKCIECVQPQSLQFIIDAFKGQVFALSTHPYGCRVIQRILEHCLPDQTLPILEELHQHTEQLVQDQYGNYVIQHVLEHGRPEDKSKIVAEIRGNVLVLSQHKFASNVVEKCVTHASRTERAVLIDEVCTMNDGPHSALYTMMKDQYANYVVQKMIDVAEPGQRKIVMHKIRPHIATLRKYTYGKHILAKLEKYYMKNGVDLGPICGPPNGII

ATXN2 = molecular target: T2, ATXN2 (human, UniProt Q99700 1-1313)
T2 construct: also called NP_002964.3
T2 sequence (Q99700 whole entry): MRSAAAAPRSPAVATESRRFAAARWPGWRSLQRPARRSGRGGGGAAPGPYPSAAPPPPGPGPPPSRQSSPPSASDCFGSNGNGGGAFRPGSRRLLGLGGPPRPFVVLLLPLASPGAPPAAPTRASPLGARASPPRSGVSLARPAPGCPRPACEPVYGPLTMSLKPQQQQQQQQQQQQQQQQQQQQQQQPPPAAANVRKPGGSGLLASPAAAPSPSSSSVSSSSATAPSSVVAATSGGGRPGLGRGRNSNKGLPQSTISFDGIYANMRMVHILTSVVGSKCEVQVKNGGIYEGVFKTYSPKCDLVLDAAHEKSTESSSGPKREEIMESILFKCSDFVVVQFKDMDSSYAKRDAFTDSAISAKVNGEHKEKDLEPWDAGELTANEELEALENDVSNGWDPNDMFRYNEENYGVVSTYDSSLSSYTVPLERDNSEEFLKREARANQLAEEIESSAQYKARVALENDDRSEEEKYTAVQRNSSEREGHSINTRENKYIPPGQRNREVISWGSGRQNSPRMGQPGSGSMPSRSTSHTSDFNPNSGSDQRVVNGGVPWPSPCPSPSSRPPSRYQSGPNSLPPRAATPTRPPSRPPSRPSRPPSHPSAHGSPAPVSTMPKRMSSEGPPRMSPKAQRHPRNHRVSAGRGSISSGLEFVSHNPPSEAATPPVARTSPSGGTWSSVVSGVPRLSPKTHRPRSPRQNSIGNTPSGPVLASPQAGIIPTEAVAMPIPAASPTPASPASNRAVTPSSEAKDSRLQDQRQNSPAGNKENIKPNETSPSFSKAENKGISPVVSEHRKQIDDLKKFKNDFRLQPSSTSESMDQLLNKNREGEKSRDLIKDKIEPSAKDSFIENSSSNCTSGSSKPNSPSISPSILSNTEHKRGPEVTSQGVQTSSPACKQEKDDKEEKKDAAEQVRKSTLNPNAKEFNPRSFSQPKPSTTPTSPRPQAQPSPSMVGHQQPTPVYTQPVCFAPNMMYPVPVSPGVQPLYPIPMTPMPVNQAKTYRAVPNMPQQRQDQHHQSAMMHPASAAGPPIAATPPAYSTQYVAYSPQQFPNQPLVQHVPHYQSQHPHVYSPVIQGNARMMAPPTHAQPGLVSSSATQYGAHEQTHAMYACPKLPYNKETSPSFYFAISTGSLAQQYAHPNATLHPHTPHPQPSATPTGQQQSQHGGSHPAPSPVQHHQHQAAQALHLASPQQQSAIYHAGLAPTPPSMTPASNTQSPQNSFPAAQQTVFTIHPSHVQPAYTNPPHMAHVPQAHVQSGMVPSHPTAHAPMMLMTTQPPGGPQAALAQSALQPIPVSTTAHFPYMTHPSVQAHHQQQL

LMNA = molecular target: T3, LMNA (human, UniProt P02545 1-646, limits assumed)
T3 construct: also called NP_733821.1
T3 sequence (looked up): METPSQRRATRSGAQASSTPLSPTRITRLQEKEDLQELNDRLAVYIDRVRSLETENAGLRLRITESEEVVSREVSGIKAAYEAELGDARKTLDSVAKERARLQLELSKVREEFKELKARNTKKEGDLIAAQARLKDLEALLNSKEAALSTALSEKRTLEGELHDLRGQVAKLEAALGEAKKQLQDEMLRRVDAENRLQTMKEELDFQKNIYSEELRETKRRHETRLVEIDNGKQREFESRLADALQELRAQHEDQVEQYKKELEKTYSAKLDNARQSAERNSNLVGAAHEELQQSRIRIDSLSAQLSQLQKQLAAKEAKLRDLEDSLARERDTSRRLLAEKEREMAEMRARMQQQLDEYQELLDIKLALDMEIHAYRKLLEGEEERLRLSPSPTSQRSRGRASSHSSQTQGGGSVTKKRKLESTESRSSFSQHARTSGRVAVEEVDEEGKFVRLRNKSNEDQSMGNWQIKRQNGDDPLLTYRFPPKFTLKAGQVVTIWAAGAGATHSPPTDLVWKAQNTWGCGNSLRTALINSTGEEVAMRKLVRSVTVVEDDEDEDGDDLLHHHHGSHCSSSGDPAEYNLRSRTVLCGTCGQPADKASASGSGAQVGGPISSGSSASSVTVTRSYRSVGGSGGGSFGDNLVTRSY

co-IP mass spectrometry count (PUM1): 0
co-IP mass spectrometry count (ATXN2): 4
co-IP mass spectrometry count (LMNA): 11
B1: N-terminal FLAG tagged B3GNT2 (enzyme, human, UniProt Q9NY97 1-397, looked up)
chain: MSVGRRRIKLLGILMMANVFIYFIMEVSKSSSQEKNGKGEVIIPKEKFWKISTPPEAYWNREQEKLNRQYNPILSMLTNQTGEAGRLSNISHLNYCEPDLRVTSVVTGFNNLPDRFKDFLLYLRCRNYSLLIDQPDKCAKKPFLLLAIKSLTPHFARRQAIRESWGQESNAGNQTVVRVFLLGQTPPEDNHPDLSDMLKFESEKHQDILMWNYRDTFFNLSLKEVLFLRWVSTSCPDTEFVFKGDDDVFVNTHHILNYLNSLSKTKAKDLFIGDVIHNAGPHRDKKLKYYIPEVVYSGLYPPYAGGGGFLYSGHLALRLYHITDQVHLYPIDDVYTGMCLQKLGLVPEKHKGFRTFDIEEKNKNNICSYVDLMLVHSRKPQEMIDIWSQLQSAHLKC
notes: Overexpressed in cells and pulled down from the lysate with mouse anti-FLAG antibody; also called N-FLAG B3GNT2; N-term FLAG; not shown: N-terminal FLAG tag
